Results as given in patent US11904004B2, “Anti-CD277 antibodies” (INSTITUT NATIONAL DE LA SANTE ET DE LA RECHERCHE MEDICALE …, priority 2010, dated 2024).
Where “and” joins values, the source holds several entries; their conditions need not be identical. Equal values may be shown once.

How the values were obtained:
[1] = system: Vγ9Vδ2 T cells; experiment: Flow cytometry of Vγ9Vδ2 T cells co-cultured with AML blasts (trogocytosis, CD107a, cytokines); format: cell-based, human
Procedure: 2×10^5 PBMC were washed in PBS (Cambrex Bio Science) and incubated at 4° C. for 20 min with specified mAb. Following incubation and washing, samples were analyzed on LSRFORTESSA® or FACS CANTO® II (Becton Dickinson) using DIVA® software (BD bioscience, Mountain View, Calif.). For analysis of CD107 expression, γδ T cells were incubated at 37° C. in the presence of anti-CD107a and GOLGISTOP® with or without anti-BTN3A 20.1 mAb. After 4 hours, cells were collected, washed in PBS and analyzed by flow cytometry. To study cytokine production, cells were further permeabilized with PERMWASH® (BD bioscience) to allow intracellular staining with labeled antibodies. Trogocytosis of PKH67 (Sigma Aldrich) labeled blasts by γδ T cells was quantified as previously described^29.

[2] = system: immature dendritic cells (iDC); experiment: Apoptosis detection (Annexin V), survival of iDC; format: cell-based, human; details: plastic-coated mAb or GM-CSF, 72-h culture, representative value and range of five experiments, listed as anti-BT3 mAb
Procedure: Blood samples were obtained from 5 healthy volunteers enrolled among the staff members, after informed consent. Monocytes were separated from peripheral blood mononuclear cells, and isolated using the MACS CD14 isolation kit (Miltenyi Biotech, Auburn, Calif. USA). Monocytes were cultured for 5 days with 200 ng/ml of recombinant human GM-CSF and 10 ng/ml recombinant human IL-4 (Schering-Plough Research Institute). These cells were termed immature dendritic cells (iDC). To achieve the stimulation, monocytes and iDC were cultured with 10 ng/ml of LPS, ligand for TLR4, 30 μg/ml of 8848 (Sigma-Aldrich, Milano, Italy), ligand for TLR7/8 and with […] of poly (I:C) (Sigma-Aldrich), ligand for TLR3, and were harvested after 48 h. The cells were cultured in RPMI 1640 supplemented with 10% heat-inactivated FCS, 5 mM L-glutamine and 50 IU/ml penicillin-streptomycin (from here on referred to as complete medium).
Monocytes and iDC were cultured on plastic coated with anti-BT3 mAb (clone 20.1) or with isotype-matched irrelevant mAb. As control, the cells were stimulated with 20 ng/ml recombinant human GM-CSF (Schering-Plough Research Institute). After three days, cells were harvested, stained with Annexin V-FITC (Bender MedSystems, Wien, Austria) and analysed by flow cytometry.

[3] = system: Vγ9/Vδ2 T cells; experiment: Cytolytic function, cytokine production and proliferation of Vγ9/Vδ2 T cells; format: cell-based
Excerpt: Typically the activation of the cytolytic function of Vγ9/Vδ2 T cells may be measured according to the method described in example 3 (i.e. “Analysis of Vγ9Vδ2 T cell responses by direct cytotoxicity assay”, and for example the results “CD277 potentiate the anti-tumor cytolysis mediated by Vγ9Vδ2 T cells”). Examples of isolated anti-CD277 antibodies, which activate the cytolytic function, cytokine production and proliferation of Vγ9/Vδ2 T cells, are mAbs 20.1 or 7.2, or derivatives thereof.
Target cells were labelled with 20 μCi of 51Cr (PerkinElmer) for 1 h at 37° C. After washing target cells were incubated with effectors Vγ9Vδ2 T cells for 4 h at 37° C. in different ratio. Incubations were performed in presence of specific or isotype control mAbs or Fab fragments. The radioactivity released by target cells was measured, 4 h later, on beta plate counter. The percentage of specific 51Cr lysis was calculated using the following equation: percent specific lysis=100×[(test release)−(spontaneous release)]/[(maximal release)−(spontaneous release)].

[4] = system: primary AML blasts; experiment: Chromium release assay, lysis of primary AML blasts by Vγ9Vδ2 T cells; format: cell-based, human
Procedure: Effector γδ T cells were established and maintained as previously described^28. PBMC from HV were stimulated with ZOL (1 μm) and rhlL-2 (200 IU/ml) at Day 0. From Day 5, rhIL-2 was renewed every two days and cells were kept at 1.5×10^6/m1 for 15 days. NK cells were isolated using EASYSEP® Human NK cell enrichment kit (StemCell Technologies). The purity of γδ T cells and NK cells was determined by flow cytometry and respectively greater than 80% and 98%. The Burkitt lymphoma cell line, DAUDI, the human AML cell line, U937, and the erythroleukemic cell line, K562, were obtained from the American Type Culture Collection and cultured (0.5×10^6/ml) in RPMI 1640 medium with 10% FCS. BTN3A Knock-down HEK293FT cells (sh #284; clone #30) were provided by E.Scotet (Inserm U892, Nantes), cultured and transfected with BTN3A1, BTN3A2, BTN3A3 mutated cDNA-containing plasmids, as described^23.
0.5×10^6 target cells were incubated with 50 pCi of ^51Cr (Perkin-Elmer) for AML blasts and 10 pCi for DAUDI and K562 cells for 90 minutes and mixed with effector cells in a Effector:Target (E:T) ratio of […]. After 4 hours of incubation at 37° C., 50p1 supernatant of each sample was transferred in LUMA® plates and radioactivity was determined by a gamma counter. The percentage of specific lysis was calculated using the formula [(experimental−spontaneous release/total−spontaneous release)×100] and expressed as the mean of triplicate.

[5] = 4-hour co-culture with AML blasts

B1: mAb 20.1: murine anti-CD277 antibody obtainable from the hybridoma CNCM I-4402; agonist (antibody, V domains shown)
VH: QVQLQQSGAELVKPGASVKLSCKASGYTFTRYYLYWVKQRPGQGLEWIGEINPNNGGTKFNEKFKSKATLTVDKSSRTTYIQLSSLTSEDSAVYYCSREDDYDGTPDAMDYWGQGTAVTVSS
VL: DIQMNQSPSSLSASLGDTITITCHASQNINLWLSWYQQRPGNIPKLLIYRASNLHTGVPSRFSGSGSATGFTLTISSLQPEDIATYYCQQGHSYPYTFGGGTKLDIK
cytokine production of IFNγ by Vγ9Vδ2 T cells [1, 5]: greater
cytokine production of TNFα by Vγ9Vδ2 T cells [1, 5]: greater
degranulation assessed by the expression of CD107a [1, 5]: greater ability to degranulate
trogocytosis of AML blasts by Vγ9Vδ2 T cells ([1]; 1 hour co-culture, vs IgG1): significantly enhanced
healthy-vital (surviving) iDC [2]: 56.75% and 53.13-60.71%
cytolytic function, cytokine production and proliferation of Vγ9/Vδ2 T cells [3]: activate
Vγ9Vδ2 T cell lysis of ZOL-resistant or ZOL-poorly responsive AML blasts ([4]; E:T 30:1): significantly enhanced
enhancement of Vγ9Vδ2 T cells lysis of AML blasts compared with BrHpp ([4]; E:T 30:1, ZOL 45 μM O/N, 20.1 mAb 10 μg/ml, BrHpp 2 μM): significantly more efficient
specific lysis of AML blasts ([4]; Vγ9Vδ2 T cells pre-incubated with mAb (10 μg/ml, 90 minutes), washed): ~4.36±2.11%
AML blasts lysis by Vγ9Vδ2 T cells, addition to ZOL ([4]; anti-BTN3A 20.1 mAb added to ZOL): poor but significant
specific lysis of AML blasts ([4]; blasts pre-incubated with mAb (10 μg/ml, 90 minutes), washed): 22.92±7.64%
sensitization of blasts from UPN09 to Vγ9Vδ2 T cells lysis in vitro ([4]; data not shown): highly sensitized
specific lysis of AML blasts ([4]; simultaneous incubation of effector cells, target cells and mAb): 35.95±1.16%
